{"source": "patent US20240116985A1", "about": "(published 2024)", "binders": {"B1": {"name": "I-1418 (peptide)", "peptide": "Ac-[αAllylPro]DL[B5(4)]DDAAFL[PyrS2″][Phe(2-Cl)][Bta]L-NH2", "modifications": "staple 1-4, 4-11; also: staple isomer composition of earlier HPLC peak", "notes": "Stapled peptide; staple isomer composition of the earlier HPLC peak"}}, "note": "Starred links: 1 amine or outer side, 2 acyl side, 3 side chain; linkers in the order of their positions; H or OH if unused. Positions of bridges follow the written chain, without caps; N, C: chain ends. Non-standard residues stand in square brackets, D forms with d. Primed or numbered codes have the meaning given here. PyrS2″ = (S)-3-amino-1-((pent-4-en-1-yloxy)carbonyl)pyrrolidine-3-carboxylic acid (stapling residue), C=CCCCOC(=O)N1CC[C@@](N[*:1])(C(=O)[*:2])C1; PyrS3″ = (S)-3-amino-1-((hex-5-en-1-yloxy)carbonyl)pyrrolidine-3-carboxylic acid (stapling residue), C=CCCCCOC(=O)N1CC[C@@](N[*:1])(C(=O)[*:2])C1; B5(4) = 2,2-bis(4-pentenyl)glycine = 2-amino-2-(pent-4-en-1-yl)hept-6-enoic acid (stitching residue), C=CCCCC(CCCC=C)(N[*:1])C(=O)[*:2]; B5(21) = 2-amino-2-(pent-4-en-1-yl)hept-6-enoic acid, bis(4-pentenyl)glycine (stitching residue), C=CCCCC(CCCC=C)(N[*:1])C(=O)[*:2]; PyrS4 = (S)-3-amino-1-((hept-6-en-1-yloxy)carbonyl)pyrrolidine-3-carboxylic acid, C=CCCCCCOC(=O)N1CC[C@@](N[*:1])(C(=O)[*:2])C1; PyrS2 = (S)-3-amino-1-((pent-4-en-1-yloxy)carbonyl)pyrrolidine-3-carboxylic acid, C=CCCCOC(=O)N1CC[C@@](N[*:1])(C(=O)[*:2])C1; B5(22) = 2-amino-2-(pent-4-en-1-yl)hept-6-enoic acid (two alkene side chains), C=CCCCC(CCCC=C)(N[*:1])C(=O)[*:2]; B3 = 2-allyl-2-aminopent-4-enoic acid, C=CCC(CC=C)(N[*:1])C(=O)[*:2]; Phe(2-CONH2) = NC(=O)c1ccccc1C[C@H](N)C(=O)O; Phe(3,4-F2) = N[C@@H](Cc1ccc(F)c(F)c1)C(=O)O; Phe(2-Cl) = N[C@@H](Cc1ccccc1Cl)C(=O)O; Bta = N[C@@H](Cc1csc2ccccc12)C(=O)O; Lys(iPr) = CC(C)NCCCC[C@H](N)C(=O)O; αAllylPro = C=CC[C@@]1(C(=O)O)CCCN1; tBuAla = CC(C)(C)C[C@H](N)C(=O)O; 3Thi = N[C@@H](Cc1ccsc1)C(=O)O; Cha = N[C@@H](CC1CCCCC1)C(=O)O; hSer = N[C@@H](CCO)C(=O)O"}
{"target": "T1, B-cat-Halo (beta-catenin HaloTag NanoBRET construct expressed in HEK293 cells) (UniProt P35222 1-781)", "T1 sequence (looked up)": "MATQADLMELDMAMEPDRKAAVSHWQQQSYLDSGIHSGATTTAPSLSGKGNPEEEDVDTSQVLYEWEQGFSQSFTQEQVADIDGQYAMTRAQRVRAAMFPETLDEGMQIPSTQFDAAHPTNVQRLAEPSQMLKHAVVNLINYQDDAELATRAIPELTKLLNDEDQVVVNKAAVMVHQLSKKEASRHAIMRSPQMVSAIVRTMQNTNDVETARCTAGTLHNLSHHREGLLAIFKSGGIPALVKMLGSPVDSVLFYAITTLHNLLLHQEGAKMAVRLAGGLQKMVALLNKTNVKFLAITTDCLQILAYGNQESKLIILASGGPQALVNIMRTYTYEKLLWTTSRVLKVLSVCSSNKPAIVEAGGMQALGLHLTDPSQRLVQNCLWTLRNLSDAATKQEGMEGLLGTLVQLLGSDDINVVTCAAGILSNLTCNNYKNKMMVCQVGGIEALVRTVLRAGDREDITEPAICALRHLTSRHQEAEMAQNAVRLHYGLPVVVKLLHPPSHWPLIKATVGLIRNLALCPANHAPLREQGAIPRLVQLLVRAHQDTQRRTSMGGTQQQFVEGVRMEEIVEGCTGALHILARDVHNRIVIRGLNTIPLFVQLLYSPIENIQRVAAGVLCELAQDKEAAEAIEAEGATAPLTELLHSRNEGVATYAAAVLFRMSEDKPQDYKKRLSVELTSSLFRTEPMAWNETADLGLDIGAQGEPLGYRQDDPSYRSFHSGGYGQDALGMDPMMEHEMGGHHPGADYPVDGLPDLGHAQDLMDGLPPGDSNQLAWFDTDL", "assay": "cell-based or functional assay", "units": {"NanoBRET Abs IC50": "µM"}}
{"binder": "Ac-[αAllylPro]N[Cha][B5(4)]DQ[Lys(iPr)]AFN[PyrS2″][Phe(2-CONH2)][Bta][hSer]-NH2 (staple 1-4, 4-11)", "note": "[I-2168]", "NanoBRET Abs IC50": "> 20"}
{"binder": "Ac-[αAllylPro]D[tBuAla][B3]DDAAFL[PyrS4][3Thi][Bta]Q-NH2 (staple 1-4, 4-11; also: later eluting HPLC peak (staple isomer composition))", "note": "[I-2159]", "NanoBRET Abs IC50": "> 20"}
{"binder": "Ac-[αAllylPro]D[tBuAla][B3]DDAAFL[PyrS4][3Thi][Bta]Q-NH2 (staple 1-4, 4-11; also: earlier eluting HPLC peak (staple isomer composition))", "note": "[I-2158]", "NanoBRET Abs IC50": "> 20"}
{"binder": "Ac-[αAllylPro]D[tBuAla][B3]DDAAFL[PyrS4][3Thi][Bta]Q-NH2 (staple 1-4, 4-11; also: olefin in each staple reduced to -CH2-CH2-)", "note": "[I-2162]", "NanoBRET Abs IC50": "> 20"}
{"binder": "Ac-[αAllylPro]D[tBuAla][B3]DDAAFL[PyrS3″][3Thi][Bta]Q-NH2 (staple 1-4, 4-11; also: olefin in each staple reduced to -CH2-CH2-)", "note": "[I-2161]", "NanoBRET Abs IC50": "> 20"}
{"binder": "Ac-[αAllylPro]N[Cha][B5(4)]DQ[Lys(iPr)]AFN[PyrS2″]F[Bta][hSer]-NH2 (staple 1-4, 4-11)", "note": "[I-2167]", "NanoBRET Abs IC50": "> 20"}
{"target": "T2, Bcat-Halo (UniProt P35222 1-781)", "T2 sequence (looked up)": "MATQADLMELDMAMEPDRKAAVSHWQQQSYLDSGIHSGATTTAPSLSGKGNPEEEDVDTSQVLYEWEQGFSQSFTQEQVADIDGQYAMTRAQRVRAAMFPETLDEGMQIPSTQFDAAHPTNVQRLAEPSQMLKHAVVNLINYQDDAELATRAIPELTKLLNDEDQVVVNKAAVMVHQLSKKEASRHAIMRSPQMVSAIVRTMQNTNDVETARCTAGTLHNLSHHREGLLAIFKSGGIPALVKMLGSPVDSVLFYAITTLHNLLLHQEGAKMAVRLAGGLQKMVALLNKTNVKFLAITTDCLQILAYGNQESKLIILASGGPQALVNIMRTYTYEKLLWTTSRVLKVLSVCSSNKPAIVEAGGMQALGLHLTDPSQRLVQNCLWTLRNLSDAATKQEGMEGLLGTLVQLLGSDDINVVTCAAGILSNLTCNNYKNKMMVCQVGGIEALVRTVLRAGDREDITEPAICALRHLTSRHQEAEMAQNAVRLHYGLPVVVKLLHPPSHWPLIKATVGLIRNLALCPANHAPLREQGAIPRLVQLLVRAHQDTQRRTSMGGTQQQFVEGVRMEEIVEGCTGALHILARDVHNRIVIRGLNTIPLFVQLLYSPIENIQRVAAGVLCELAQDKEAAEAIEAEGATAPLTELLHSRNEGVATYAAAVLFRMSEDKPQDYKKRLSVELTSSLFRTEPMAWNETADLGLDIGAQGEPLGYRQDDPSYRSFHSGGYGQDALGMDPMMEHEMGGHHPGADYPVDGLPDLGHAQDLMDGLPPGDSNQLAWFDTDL", "assay": "cell-based or functional assay", "units": {"NanoBRET Abs IC50": "µM"}}
{"binder": "Ac-[αAllylPro]D[tBuAla][B5(4)]DDAAFL[PyrS2][3Thi][Phe(3,4-F2)]S-NH2 (staple 1-4, 4-11)", "note": "[I-1428]", "NanoBRET Abs IC50": 40.2}
{"binder": "Ac-[αAllylPro]D[tBuAla][B5(4)]DDAAFL[PyrS2][3Thi][Phe(3,4-F2)]Q-NH2 (staple 1-4, 4-11)", "note": "[I-1427]", "NanoBRET Abs IC50": 30.4}
{"binder": "Ac-[αAllylPro]DS[B5(21)]DDAAFL[PyrS2″][3Thi][Bta]L-NH2 (staple 1-4, 4-11)", "note": "[I-1414]", "NanoBRET Abs IC50": "> 20"}
{"binder": "Ac-[αAllylPro]D[tBuAla][B5(4)]DDAAFL[PyrS2][3Thi]WS-NH2 (staple 1-4, 4-11)", "note": "[I-1432]", "NanoBRET Abs IC50": 14.5}
{"binder": "B1", "NanoBRET Abs IC50": "> 20"}
{"binder": "Ac-[αAllylPro]D[tBuAla][B5(4)]DDAAFL[PyrS2][3Thi]WQ-NH2 (staple 1-4, 4-11)", "note": "[I-1431]", "NanoBRET Abs IC50": 14.6}
{"target": "T3, B-cat-Halo (beta-catenin HaloTag NanoBRET construct expressed in HEK293 cells) (UniProt P35222 1-781, HaloTag NanoBRET 618 Ligand bound to the HaloTag)", "T3 sequence (looked up)": "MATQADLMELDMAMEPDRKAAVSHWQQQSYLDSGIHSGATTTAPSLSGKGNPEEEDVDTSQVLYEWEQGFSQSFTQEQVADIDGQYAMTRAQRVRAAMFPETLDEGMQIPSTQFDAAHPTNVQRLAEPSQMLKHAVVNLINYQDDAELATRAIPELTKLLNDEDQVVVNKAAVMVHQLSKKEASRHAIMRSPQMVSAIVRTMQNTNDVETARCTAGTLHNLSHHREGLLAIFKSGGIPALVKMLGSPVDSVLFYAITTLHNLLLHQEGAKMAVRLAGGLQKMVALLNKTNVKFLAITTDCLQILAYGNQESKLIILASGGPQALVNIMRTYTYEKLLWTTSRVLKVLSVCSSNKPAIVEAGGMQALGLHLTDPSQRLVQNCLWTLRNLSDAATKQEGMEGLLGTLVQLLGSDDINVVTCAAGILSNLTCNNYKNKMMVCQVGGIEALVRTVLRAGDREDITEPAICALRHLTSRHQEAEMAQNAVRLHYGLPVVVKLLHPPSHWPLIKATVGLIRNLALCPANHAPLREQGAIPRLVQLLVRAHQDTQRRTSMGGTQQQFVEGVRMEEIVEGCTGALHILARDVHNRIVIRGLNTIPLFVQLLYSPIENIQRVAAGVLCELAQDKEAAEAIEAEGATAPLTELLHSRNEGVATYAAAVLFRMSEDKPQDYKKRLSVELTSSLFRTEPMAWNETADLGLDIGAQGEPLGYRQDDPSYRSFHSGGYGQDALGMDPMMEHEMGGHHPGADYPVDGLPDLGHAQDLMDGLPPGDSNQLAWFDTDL", "assay": "cell-based or functional assay", "units": {"NanoBRET Abs IC50": "µM"}}
{"binder": "Ac-[αAllylPro]D[tBuAla][B5(22)]DDAAFN[PyrS2][3Thi][Bta]QK(PropynPEG2)-NH2 (staple 1-4, 4-11)", "note": "[I-936]", "NanoBRET Abs IC50": 22.2}
{"binder": "Ac-[αAllylPro]D[tBuAla][B5(22)]DDAAFN[PyrS2][3Thi][Bta]QK(PropynPEG1)-NH2 (staple 1-4, 4-11)", "note": "[I-935]", "NanoBRET Abs IC50": 33.1}
